What all share (assay): SPR
Background: Surface plasmon resonance follows binding to a sensor surface in real time, without labels.

Assay [1] deals with T1, GBP1 GTPase (human GBP1, recombinant wild type) (human, UniProt P32455 1-592).
T1 sequence (looked up): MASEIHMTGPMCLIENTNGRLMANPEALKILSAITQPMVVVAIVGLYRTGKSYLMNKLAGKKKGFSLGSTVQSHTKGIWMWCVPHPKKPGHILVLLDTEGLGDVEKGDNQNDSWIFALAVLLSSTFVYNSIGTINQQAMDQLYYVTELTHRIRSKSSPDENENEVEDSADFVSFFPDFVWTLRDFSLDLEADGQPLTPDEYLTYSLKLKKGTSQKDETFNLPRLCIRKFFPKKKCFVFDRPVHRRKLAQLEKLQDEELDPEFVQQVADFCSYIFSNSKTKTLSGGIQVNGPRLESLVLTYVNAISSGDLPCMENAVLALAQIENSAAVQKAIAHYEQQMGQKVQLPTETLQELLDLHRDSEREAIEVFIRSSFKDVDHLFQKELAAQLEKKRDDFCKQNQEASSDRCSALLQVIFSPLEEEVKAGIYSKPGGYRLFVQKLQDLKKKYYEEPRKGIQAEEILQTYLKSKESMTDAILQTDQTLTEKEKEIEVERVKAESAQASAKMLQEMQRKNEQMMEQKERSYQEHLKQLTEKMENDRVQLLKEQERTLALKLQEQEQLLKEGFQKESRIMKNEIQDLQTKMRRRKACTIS

The target in assay [2] is T2, GBP1 mutant R227E/K228E (human, UniProt P32455 1-592, R227E | K228E).
T2 sequence (looked up): T1 sequence (looked up) with R227E, K228E

Assay [3] addresses T3, GBP1 mutant K51A (human, UniProt P32455 1-592, K51A).
T3 sequence (looked up): T1 sequence (looked up) with K51A

Assay [4] deals with T4, GBP1 mutant Q72A (human, UniProt P32455 1-592, Q72A).
T4 sequence (looked up): T1 sequence (looked up) with Q72A

Changes are numbered by the printed parent chain.

B1: PIM1 (recombinant) (enzyme)
chain: not shown
For the molecule B1, the Kd in assay [1] is 30 ± 10 nM; in assay [2], above 10000 nM; in assay [3], 26 ± 11 nM; in assay [4], 161 ± 17 nM.

In general, Kd refers to a measure of binding affinity in units of concentration.
